# Assay results as given in patent publication US20240034757A1 (OXFORD UNIVERSITY INNOVATION, published 2024).
# B1: P1243:G4S:P1156 (designed binder)
# chain: RNHTEDNSTEYYDYEEARCACPARHLNNTNGTVLKLLGCHYFCNGTLCTAPDGYPCYNLTAQQVRTLTTYPNTSCAVGVCMKGTCVKNGTMEQCFKTPGGGGSADDDNELFTVQYCGMNCTKDEGGTWTGCTGKKEGCKCYHESGKNYGLCLSTEYTDFSQYGNPSDSEIEAAKPKRSDTLSH
# Columns and labels:
# Assay in all cases: BLI
# CCL5_HUMAN = molecular target: T1, CCL5_HUMAN (human, UniProt P13501 24-91)
# T1 sequence: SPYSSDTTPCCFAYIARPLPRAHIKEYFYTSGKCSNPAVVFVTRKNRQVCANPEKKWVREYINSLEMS
# CCL14_HUMAN = molecular target: T2, CCL14_HUMAN (human, UniProt Q16627 22-93)
# T2 sequence: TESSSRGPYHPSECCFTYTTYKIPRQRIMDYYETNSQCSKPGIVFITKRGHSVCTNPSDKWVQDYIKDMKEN
# CCL24_HUMAN = molecular target: T3, CCL24_HUMAN (human, UniProt O00175 27-104)
# T3 sequence: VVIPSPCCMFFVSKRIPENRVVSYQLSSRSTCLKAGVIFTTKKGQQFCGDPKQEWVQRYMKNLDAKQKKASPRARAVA
# CCL8_HUMAN = molecular target: T4, CCL8_HUMAN (human, UniProt P80075 24-99)
# T4 sequence (looked up): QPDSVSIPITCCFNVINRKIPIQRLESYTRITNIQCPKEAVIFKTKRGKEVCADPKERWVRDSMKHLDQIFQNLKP
# CCL23_HUMAN = molecular target: T5, CCL23_HUMAN (human, UniProt P55773 22-120)
# T5 sequence: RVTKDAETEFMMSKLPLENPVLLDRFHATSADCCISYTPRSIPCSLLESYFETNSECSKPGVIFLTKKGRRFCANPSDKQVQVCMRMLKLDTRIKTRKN
# CCL19_HUMAN = molecular target: T6, CCL19_HUMAN (human, UniProt Q99731 22-98)
# T6 sequence: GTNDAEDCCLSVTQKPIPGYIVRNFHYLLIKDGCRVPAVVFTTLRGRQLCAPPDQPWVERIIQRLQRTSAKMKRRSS
# CCL28_HUMAN = molecular target: T7, CCL28_HUMAN (human, UniProt Q9NRJ3 23-127)
# T7 sequence: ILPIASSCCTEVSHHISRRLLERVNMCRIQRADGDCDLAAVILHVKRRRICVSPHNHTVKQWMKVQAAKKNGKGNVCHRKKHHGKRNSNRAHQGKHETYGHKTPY
# CCL18_HUMAN = molecular target: T8, CCL18_HUMAN (human, UniProt P55774 21-89)
# T8 sequence: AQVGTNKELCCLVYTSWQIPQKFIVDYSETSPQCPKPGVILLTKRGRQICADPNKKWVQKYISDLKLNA
# CCL7_HUMAN = CCL7_HUMAN (human, UniProt P80098 24-99)
# 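Also: biolayer interferometry binding readings, curves fitting with R² below 0.9 dropped, every experiment run at least three times.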
# Sequence of CCL7_HUMAN (P80098 24-99 limits assumed): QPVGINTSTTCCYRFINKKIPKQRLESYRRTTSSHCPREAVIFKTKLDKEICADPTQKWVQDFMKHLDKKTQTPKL
binder,measurement,setting,value
B1,Kd,CCL5_HUMAN,8.95 nM
same,Kd,CCL14_HUMAN,1.99 nM
same,Kd,CCL24_HUMAN,16.4 nM
same,Kd,CCL8_HUMAN,381 nM
same,Kd,CCL23_HUMAN,0.632 nM
same,Kd,CCL19_HUMAN,2.92 nM
same,binding result,CCL28_HUMAN,no binding (tested: 300 nM)
same,Kd,CCL18_HUMAN,0.543 nM
same,Kd,CCL7_HUMAN,49 nM
